Source: the nanobody polyreactivity screen of Harvey et al. (2022)

test: yeast display, Sf9 membrane polyspecificity reagent, FACS + sequencing; frameworks hold sequencing errors
In short: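 Galactose-induced (36–48 hours) yeast carrying a synthetic nanobody display library were exposed to 10% biotinylated, detergent-solubilized Sf9 membrane reagent at 4 °C for 1 hour. FACS followed streptavidin microbead enrichment, using low and high (top ~1%) gates for expression (anti-HA) and reagent binding (streptavidin). Colony PCR, MiSeq 2 × 250 sequencing and CDR-length filtering followed. Labels for polyreactivity reflect the gate of origin.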

Row | Sequence | polyreactivity (PSR sort gate)
1 | QVQLVESGGRLVQAGGSLRLLGAASGRIIYYNAMGWYRPAPGKERELVAAISSIGGSTYADSVKGRFTISRDNAKNTVYLQMNSLKPEDTAVYYCAADGFKRLYTQVAHVRYDYWGQGTQVTVSS | low polyreactivity
2 | QVQLVESGGRLVQAGGSLRLSCAAAAITFYLYAMGRYRQAPGKERELVAAISSSGGSTYYADSVKGRFTISRDNAKNTVYLQINSLKPEDTAVYYCNARRRTVPYRYDYWGQGTQVTVSS | high polyreactivity
3 | QVQLVESGGRLVQAGGSLRLSCAASGFIFRSYAMGWYRQAPGKERELVAAISSRGGSTSYADSVKGRFTISRDNAKNTVYLQLNSLKPEDTAVYYCNAYQYPGYGNNYWGQGSQVTVSS | high polyreactivity
4 | QVQLVESGGRLVQAGGSLRLSCAASGFIFRYNAMGWYRQAPGKERELVARITSSGGTTYYADSVKGRFTISRDSSKNTVYLQMNSLKPEDTAVYYCNARKVRYPYGWYDYWGQGTQVTVSS | high polyreactivity
5 | QVQLVESGGRLVQAGGSLRLSCAASGFSFGGNVIGWYRQAPGKDREFVAAITDGDGSTYYADSVKGRFTISRDNAKNTVYLQMNSLKPEDTSVYYCAGDVYYADVYPVEYWGQGTQVTVSS | high polyreactivity
6 | QVQLVESGGRLVQAGGSLRLSCAASGFTFRRYAMGWYRQAPGKERELVAVITTAGSTNYADSVKGRFTISRDNAKNTVYLQMNTLKPEDTAVYYCATDNGTRKRRYDYWGQGTQVTVSS | low polyreactivity
7 | QVQLVESGGRLVQAGGSLRLSCAASGFTFRYYDMRWYRPAPGKVRELVAAISSGGSTDYADSVKGRFTISRDNAKNTVYLQMNSLKPEDTAVYYCAADWWVVYTYDYWGRGTQVTVSS | low polyreactivity
8 | QVQLVESGGRLVQAGGSLRLSCAASGFTFSHYAMGWYRQAPGKERELVAAISGRGGSTYYADSVKGRFTISRDNAKNTVYLPMNSLKPEDTAVYYCAARPSTYYTGHDYWGQGTQVTVSS | high polyreactivity
9 | QVQLVESGGRLVQAGGSLRLSCAASGFTFSSYAMGWYRQAPGKERELVAAISTRCGSTYYADSVKGRFTISRDNAKNTVYLQMNSLKPEDTAVYYCATGCRGGRRYEYWGQGTQVTVSS | low polyreactivity
10 | QVQLVESGGRLVQAGGSLRLSCAASGGIIRGYAMGWYRQAPGKEWELVATIRSSGRTNYADSVKGRFTISRDNEKNTVYFQMNSLKQEDTAVYYCAAVVRQYGFDYWGQGTQVTVSS | low polyreactivity
11 | QVQLVESGGRLVQAGGSLRLSCAASGGTFRVYAMGWNRQAPGKEIEFVAAISAHGGRTYYADSVKGRFTISRDNAQNTVYLQLNSLKPEDTAVYYFYNRLPNSQDGTSAHYTYYSWGQGTQVTVSS | low polyreactivity
12 | QVQLVESGGRLVQAGGSLRLSCAASGIIFPYNTMGWYRQSPGKERELVASIDDGGSTNYADSVKGRFTISRDNAKNTVYLQMNSLKPEDTAVYYCNADLFFIYVRQPGYDYWGQGTQVTVSS | low polyreactivity
13 | QVQLVESGGRLVQAGGSLRLSCAASGITFDLYDMGWYRQAPGKVRELVAAITDADSTYYADSVKGRFTMSRDNEKNTVKLQMTSLIPEDTAVYYCAADFFYSVYSGHYDYWGQGTQVTVSS | low polyreactivity
14 | QVQLVESGGRLVQAGGSLRLSCAASGITFLKYALGWYRQAPGKERELVAAISRRGGSTYYADSVKGRFTISRDNAMNTVYLEMNSLKPSDTAVYYCAARTVRGTWSQNDYCGQGTQVTVSS | low polyreactivity
15 | QVQLVESGGRLVQAGGSLRLSCAASGITFVYYAMGWYRQAPGKERELVASISSGGSTYYADSVKGRFTISRDNAKNTVYLQMNSLKPEDTAVYDCAAPTGWYPAYGEYEYWGQGTQVTVSS | low polyreactivity
16 | QVQLVESGGRLVQAGGSLRLSCAASGITFYDYAMGWYRQAPGKERELVAAITWNGGDTYYADSVKGRFTISRDNAKNTVYLQMHSLKPEDTAVYYCNATRHYFGGFHYEYYYWGQGTQVTVSS | low polyreactivity
17 | QVQLVESGGRLVQAGGSLRLSCAASGRIFARYAMGWYRQAPGKERELLASINSGGNTYYADSVKGRFTISRDNAKNTVYLQMNSLKPEDTAVYYCAAVVGRRPSSRSRFEYDYWGQGTQVTVSS | low polyreactivity
18 | QVQLVESGGRLVQAGGSLRLSCAASGRIFRVYAMGWYRQAPGKERELVAAISSRGGRTYYADSVKGRFTISRDNAKNTVYLQMNSLKPEDTAVYFCAADGRSSSRTTSRYDYWGQGTQVTVSS | high polyreactivity
19 | QVQLVESGGRLVQAGGSLRLSCAASGRIYTPYAMGWYRQAPGTERELVAAISTIGGTTYADSVKGRFTISRDNAKNTVYLQMNSLKPEDTAVYYCNTRRTGRRSTTPGDYWGQGTQVTVSS | high polyreactivity
20 | QVQLVESGGRLVQAGGSLRLSCAASGRNFGLYAMGWYRQAPGKEREFVAAIRWIGGGTYYADSVKGRFTISRDNAKNTVYLQMNSLKPEDTAVYYCAARLSVAWVGYDYWGQGTQVTVSS | low polyreactivity
21 | QVQLVESGGRLVQAGGSLRLSCAASGRTFGYYAMGWYRQAPGQERELVAAITESGGSTYYSDSVKGRFTISRDNAMNTVYLQMNSLKPEDTAVYYFASTHFVKGDYWGQGTQVTVSS | high polyreactivity
22 | QVQLVESGGRLVQAGGSLRLSCAASGRTFQGNAMGWSRQAPGKERELVAAISIRSGRTYYADSVKGRFTISRDNAKNTVYLQMNSLKPEDTAVYYCAAYRGKVRYDYWGQGTQVTVSS | high polyreactivity

Row | Sequence | polyreactivity (PSR sort gate)
23 | QVQLVESGGRLVQAGGSLRLSCAASGRTFRSHTKGWYRKAPGKERELVAAIIIGGSTYYADTVKGRFTISRDNAKNTVYLQMNSLKPEDSAVYYCARFYRYSRDYWGQGTQVTVSS | high polyreactivity
24 | QVQLVESGGRLVQAGGSLRLSCAASGRTFRSYAMGWYRPAPGKEWELVAAIRTSDGITYYADSVKGRFTISRDNAKNTVDLQMNSLQPEDTAVYYCAAENWYKYDYWGQGTQVTVSS | low polyreactivity
25 | QVQLVESGGRLVQAGGSLRLSCAASGRTFSFYAMGWYRQAPGQERELVAGIDWDDGSTSYADSVKGRFTISRDNAKNSVYLQMNSLKPEDTAVYYCAADIGYDDYNDYDYWGQGTQVTVSS | low polyreactivity
26 | QVQLVESGGRLVQAGGSLRLSCAASGRTFSVYAMGWYRQAPGKERELVAGITSGGSTNYADSVKGRFTISRDNAKNTVYLQMNSRKPEDTAVYYCAAEIVYAAFGFDSIGDYWGQGTQVTVSS | low polyreactivity
27 | QVQLVESGGRLVQAGGSLRLSCAASGRTLSSYVIGWYRQAPGKERELVAAITQSTSRTYYADSVKGRFTISRDNAKNTVYLQMHSLKPEDTAVYYCAAEGRFGRKYGYWGQGTQVTVSS | low polyreactivity
28 | QVQLVESGGRLVQAGGSLRLSCAASGSIFGFNAMGWYRQAPGKERELVAAIIYGGSTNYADSVKGRFTISRDNEKNTVYLQMNSQKPEDTAVYYCAARLNYIRRGYWGQGTQVTVSS | high polyreactivity
29 | QVQLVESGGRLVQAGGSLRLSCAASGSIFNRYAMGWYRQAPGKERELVARITNRSGNTYYADSVKGRFTISRANAKNTVYLQMNSLKPEDTAVYYCAATKSLGRYNMDYWGQGTQVTVSS | low polyreactivity
30 | QVQLVESGGRLVQAGGSLRLSCAASGSIFWYNSMGWYRQAPGKERELVAAISRRGGTTYADSVKGRFSISRDNAKYTVYLQLNSLKPEDTAVSYCGTTYTSRYYPYDYWGQGTQVTVSS | high polyreactivity
31 | QVQLVESGGRLVQAGGSLRLSCAASGSIFYRYAMGWYRQAPGQERELVATINSDGGDTYYADSVKGRFTISRDNAKNTVSLQMNSLKPEDTAVYYSAKGYYVLYRAWYDSYDYWGQGTQVTVSS | low polyreactivity
32 | QVQLVESGGRLVQAGGSLRLSCAASGSIFYSYAMGWYRQAPGKERELVAAISRSGVSTYYADSVKGRFTISRDNAKNTVYFQMNSLKPEDTAVYYCASPYFVSYQGYDYWGQGTQVTVSS | high polyreactivity
33 | QVQLVESGGRLVQAGGSLRLSCAASGSILTYYTMGWYRQAPGKERELVARISWSGSRTYYADSVKGRFTISRDNAKNTVYLQMNSLKPEDTAVYYCAAKANWYANYDYWGQGTQVTVSS | high polyreactivity
34 | QVQLVESGGRLVQAGGSLRLSCAASGSTFNINAMGWYRQAPGKERELVAAISWSGDITYYADSVKGRFTISRDNAKNNVYLQMNSLKPEDTAVYYCNTDDPGNYWYAEYDYWGQGTQVTVSS | low polyreactivity
35 | QVQLVESGGRLVQAGGSLRLSCAASGSTFRYYAMGWYRQAPGKERELVAAITSSGTSTYYADSVKGRFTISRDNAKNTVYLQMNSLKPEDTAVYYCAAPPVYKWVSSRYDYWGQGTQVTVSS | low polyreactivity
36 | QVQLVESGGRLVQAGGSLRLSCAASGYNFSKYAMGWYRQAPGKERELVAAISGSGGSTSYADSVKGRFTISRDNAKNTVYLHMNSLKPEDTAVYYCNARSRLQRGRMDYWGQGTQVTVSS | high polyreactivity
37 | QVQLVESGGRLVQAGGSLRLSCAASGYTFGSYPMGWYRQAPGNERELVAAISGGGSTNYADSVKGRFTISRDNAKNTVYLQMNSMKPEDTAVYYCAAYPYVYQLRVEEYDHWGQGTQVTVSS | low polyreactivity
38 | QVQLVESGGRLVQAGGSLRLSCAASGYTIDPYDMGWYRQAPGKERELVASISWSGGDTYYADSVKGRFTISRDNAKNTVYLQMNSLKPEDTAVYYCAADPGYPANRTEWSDFDYWGQGTQVTVSS | low polyreactivity
39 | QVQLVESGGRLVQAGGSLRLSCAPSGFTFYRYAMGWYRQAPGKEREFVAAITWSGGSTYYADSVKGRFTISRDNSKNTVYLQMNSLKPEDTAVYYCAAYVGFDGTREYDYWGQGTQVTVSS | high polyreactivity
40 | QVQLVESGGRLVQAGGSLRLSCAPSGNTFALNAMGWYRQAPGKERELVAAISRRGASTYYADSVKRRFTISRDYAKNTVYIQMNSLKPEDNALDYCAADSGPRVGFFYWGQGTQVTVSS | high polyreactivity
41 | QVQLVESGGRLVQAGGSLRLSCPASGSTFGVYAMGWYRPEPGKEREFVAAINYSGRTYYADSVKGLFTISRDNAKITVYLQMNSLKPEDTAVYYCNADFFYRYYGAYDYWGQGNQVTVSS | high polyreactivity
42 | QVQLVESGGRLVQAGGSLRLSSAASGRIFKKNAMGRYRQAPGKERELVAAISYRGGSTYYADSVKGRFTISRDNAKNSVYLQMNSLKPVDTAVYYCNVGSRGCWDASDYDYWGQGTQVTVSS | high polyreactivity
43 | QVQLVESGGRLVQAGGSLRLTCAASGITFGDYAMGWYRQAPGKERELVAGINWSGDGTYYADSVKGRFTISRDNAKNTVYLQMNSLKPEDTAVYYCAAETFYDYGGYDYWGQGTQVTVSS | low polyreactivity
